# Laboratory results taken from US6645762B2, “Synthases” (The Salk Institute for Biological Studies, priority 1998, dated 2003).
# Experiments:
# Assay type in all cases: biochemical
# [1] = Sesquiterpene synthase activity assay with radiolabelled FPP (Ag-TLC and GC/MS product analysis); conditions: for products of FPP turnover, analyzed by Ag-TLC: radiolabelled FPP, FIG. 4
# Method: (§1) Synthase activity assays were carried out based on the assay described in Vogeli and Chappell, Plant Physiol. 94:1860 (1990) and Vogeli, et al., Plant Physiol. 93:182 (1990). In general, radio-labeled (^3H or ^14C) substrate was incubated with enzyme at room temperature in a buffered magnesium salt solution (200 mM Tris, pH 8, 50 mM Mg chloride, 1 mM DTT, unless otherwise noted); hydrocarbon products were then selectively extracted into an organic solvent such as hexane. The hexane extract generally was treated with silica gel to remove prenyl alcohols and other oxygenated compounds generated by non-enzymatic hydrolysis of substrate, which partition inefficiently into hexane. Hydrocarbon products present in the hexane phase were quantitated by scintillation counting.
# (§2) Substrate concentrations typically ranged from 0.1 nanomolar to 100 micromolar. In some assays, the substrate was not radiolabeled. Reactions generally were carried out in triplicate for each substrate concentration. Protein concentration was determined by the Bradford method. For determination of steady-state kinetic parameters, enzyme concentrations were chosen such that generation of products over time was linear throughout the course of the reaction.
# (§3) Diterpene synthase assays typically were carried out using ^3H geranylgeranyl diphosphate (GGPP) and enzyme in 250 mM Tris, 10 mM Mg chloride, 1 mM DTT, pH 8.0. Sesquiterpene synthase assays typically were carried out using ^14C or ^3H FPP and enzyme in 100 mM Tris, 30 mM Mg chloride, 1 mM DTT, pH 8.0. Monoterpene synthase assays typically were carried out using ^3H GPP and enzyme. As a control for nonspecific binding of GPP by protein, identical reactions were set up which contained BSA, rather than enzyme.
# (§4) Terpenoid hydrocarbon products are not readily separated by thin layer chromatography on normal or reverse-phase plates; however, some can be separated by argentation TLC (Ag-TLC), in which silica plates are first treated with silver nitrate. Ag-TLC described here generally followed the procedure described by Back et al., Arch. Biochem. Biophys. 315:527 (1994). A silica TLC plate was dipped in 15% silver nitrate (aqueous), then dried for 3-5 hours at 110° C. After spotting of tritiated enzymatic products (solvent extract), the plate was developed in benzene:hexane, ethyl acetate (50:50:1, by volume), sprayed with En^3Hance (NEN) fluorography spray, placed on film, and exposed for several days to several weeks. Long exposure times were generally necessary, as silver-nitrate treatment of the TLC plate appeared to cause quenching of the fluorography reagents fluorescence. Alternatively, ^14C labelled products were detected after one to two days without the use of fluorography spray.
# Products of FPP turnover by the purified TEAS W273S mutant were analyzed by argentation thin-layer chromatography (Ag-TLC).
# Reactions with FPP as substrate were carded out with ^14C FPP (9 μm) and enzyme (160 μm) in reaction buffer (20 μl). After incubating for 30 minutes at room temperature, products made by TEAS C440W/W273S were analyzed by Ag-TLC. […] The new product was distinct from both 5-epi-aristolochene and vetispiradiene. Several other products were also formed, many of which migrated slowly upon argentation TLC.
# Reactions with radiolabeled FPP and TEAS Y520F enzyme were carried out essentially as described above. Reaction products were analysed by Ag-TLC and by GC/MS.
# [2] = Diterpene synthase activity assay with radiolabelled GGPP (solvent extraction, scintillation counting, Ag-TLC); conditions: for hexane-extractable products formed from GGPP, analyzed by Ag-TLC: overnight incubation at room temperature, FIG. 3
# Method: as §1
# A subsequent extraction with a more polar organic solvent such as ethyl acetate was sometimes carried out. Oxygenated compounds more efficiently partition into ethyl acetate-type solvents. Compounds present in the ethyl acetate phase were also quantitated by scintillation counting.
# as §2, §3, §4
# The TEAS W273S enzyme and radiolabelled GGPP were incubated as described above and hydrocarbon products were extracted with hexane. Oxygenated products were then extracted with ethyl acetate.
# The mutant TEAS C440W1W273S protein contains a tryptophan residue at position 440 and a serine residue at position 273. Assays with GGPP were carried out using 0.5 micromolar ^3H GGPP, various concentrations of unlabelled GGPP (Echelon), and enzyme. Reactions were incubated for 60 minutes at room temperature. […] Hexane-extractable products of GGPP turnover by the double mutant were analyzed by Ag-TLC. The products included two species (Rf=0.11 and 0.28) that were distinct from the hydrolysis product geranyl geraniol (Rf=0.0).To verify that products generated by TEAS C440W/W273S from GGPP were not the hydrolysis product, geranylgeraniol, a sample was analyzed by Ag-TLC. […]
# [3] = Alkylation of enzyme by radiolabeled FPP; conditions: dependent upon the presence of MgCl2
# Method: Reactions to determine the products made by TEAS W273E using FPP as substrate were carried out essentially as described above, using radioiabeled FPP. […] The alkylation was dependent upon the presence of MgCl2 in the reaction mixture. In control experiments, boiled W273E-TEAS, as well as wild-type TEAS and BSA, were not alkylated.
Molecule,"products of FPP turnover, hexane extract analyzed by GC/MS [1]","products of FPP turnover, analyzed by Ag-TLC [1]","counts in hexane and ethyl acetate extracts after incubation with radiolabelled GGPP ([2]; hydrocarbon products extracted with hexane, oxygenated products with ethyl acetate, compared with buffer alone)","hexane-extractable products formed from GGPP, analyzed by Ag-TLC [2]","conversion of GGPP to hexane-extractable products ([2]; 0.5 micromolar 3H GGPP plus unlabelled GGPP, 60 minutes at room temperature)",alkylation of the enzyme by FPP [3]
"TEAS W273S: TEAS mutant with serine at position 273 (protein, UniProt Q40577 1-548, looked up, variant W273S) 5-epi-aristolochene synthase: MASAAVANYEEEIVRPVADFSPSLWGDQFLSFSIKNQVAEKYAKEIEALKEQTRNMLLATGMKLADTLNLIDTIERLGISYHFEKEIDDILDQIYNQNSNCNDLCTSALQFRLLRQHGFNISPEIFSKFQDENGKFKESLASDVLGLLNLYEASHVRTHADDILEDALAFSTIHLESAAPHLKSPLREQVTHALEQCLHKGVPRVETRFFISSIYDKEQSKNNVLLRFAKLDFNLLQMLHKQELAQVSRWWKDLDFVTTLPYARDRVVECYFSALGVYFEPQYSQARVMLVKTISMISIVDDTFDAYGTVKELEAYTDAIQRWDINEIDRLPDYMKISYKAILDLYKDYEKELSSAGRSHIVCHAIERMKEVVRNYNVESTWFIEGYTPPVSEYLSNALATTTYYYLATTSYLGMKSATEQDFEWLSKNPKILEASVIICRVIDDTATYEVEKSRGQIATGIECCMRDYGISTKEAMAKFQNMAETAWKDINEGLLRPTPVSTEFLTPILNLARIVEVTYIHNLDGYTHPEKVLKPHIINLLVDSIKI",at least four terpene hydrocarbons,distinct from both 5-epi-aristolochene (Rf=0.78) and vetispiradiene (Rf=0.63),counts that were significantly higher for both the hexane and ethyl acetate extracts,distinct from the products made by acid-catalyzed loss of diphosphates from GGPP,,
"TEAS C440W/W273S: TEAS double mutant, tryptophan at position 440 and serine at position 273, SEQ ID NO:10 (protein) MASAAVANYEEEIVRPVADFSPSLWGDQFLSFSIDNQVAEKYAQEIEALKEQTRSMLLATGRKLADTLNLIDIIERLGISYHFEKEIDEILDQIYNQNSNCNDLCTSALQFRLLRQHGFNISPEIFSKFQDENGKFKESLASDVLGLLNLYEASHVRTHADDILEDALAFSTIHLESAAPHLKSPLREQVTHALEQCLHKGVPRVETRFFISSIYDKEQSKNNVLLRFAKLDFNLLQMLHKQELAQVSRWWKDLDFVTTLPYARDRVVECYFSALGVYFEPQYSQARVMLVKTISMISIVDDTFDAYGTVKELEAYTDAIQRWDINEIDRLPDYMKISYKAILDLYKDYEKELSSAGRSHIVCHAIERMKEVVRNYNVESTWFIEGYMPPVSEYLSNALATTTYYYLATTSYLGMKSATEQDFEWLSKNPKILEASVIIWRVIDDTATYEVEKSRGQIATGIECCMRDYGISTKEAMAKFQNMAETAWKDINEGLLRPTPVSTEFLTPILNLARIVEVTYIHNLDGYTHPEKVLKPHIINLLVDSIKI",,,,different from those generated by non-enzymatic degradation of geranylgeranyl diphosphate,converted GGPP to hexane-extractable products,
"TEAS C440W: TEAS mutant with tryptophan at position 440 (protein, UniProt Q40577 1-548, looked up, variant C440W) 5-epi-aristolochene synthase: MASAAVANYEEEIVRPVADFSPSLWGDQFLSFSIKNQVAEKYAKEIEALKEQTRNMLLATGMKLADTLNLIDTIERLGISYHFEKEIDDILDQIYNQNSNCNDLCTSALQFRLLRQHGFNISPEIFSKFQDENGKFKESLASDVLGLLNLYEASHVRTHADDILEDALAFSTIHLESAAPHLKSPLREQVTHALEQCLHKGVPRVETRFFISSIYDKEQSKNNVLLRFAKLDFNLLQMLHKQELAQVSRWWKDLDFVTTLPYARDRVVECYFWALGVYFEPQYSQARVMLVKTISMISIVDDTFDAYGTVKELEAYTDAIQRWDINEIDRLPDYMKISYKAILDLYKDYEKELSSAGRSHIVCHAIERMKEVVRNYNVESTWFIEGYTPPVSEYLSNALATTTYYYLATTSYLGMKSATEQDFEWLSKNPKILEASVIIWRVIDDTATYEVEKSRGQIATGIECCMRDYGISTKEAMAKFQNMAETAWKDINEGLLRPTPVSTEFLTPILNLARIVEVTYIHNLDGYTHPEKVLKPHIINLLVDSIKI",single major sesquiterpene hydrocarbon product as well as a small number of minor hydroxylated products,at least one major terpenoid hydrocarbon product,,no hexane-extractable products were detectable,,
"boiled W273E-TEAS: boiled W273E-TEAS used as control in alkylation experiment (protein, UniProt Q40577 1-548, looked up, variant W273E, heat-denatured (boiled), boiled W273E-TEAS used as control in alkylation experiment) 5-epi-aristolochene synthase: MASAAVANYEEEIVRPVADFSPSLWGDQFLSFSIKNQVAEKYAKEIEALKEQTRNMLLATGMKLADTLNLIDTIERLGISYHFEKEIDDILDQIYNQNSNCNDLCTSALQFRLLRQHGFNISPEIFSKFQDENGKFKESLASDVLGLLNLYEASHVRTHADDILEDALAFSTIHLESAAPHLKSPLREQVTHALEQCLHKGVPRVETRFFISSIYDKEQSKNNVLLRFAKLDFNLLQMLHKQELAQVSRWWKDLDFVTTLPYARDRVVECYFEALGVYFEPQYSQARVMLVKTISMISIVDDTFDAYGTVKELEAYTDAIQRWDINEIDRLPDYMKISYKAILDLYKDYEKELSSAGRSHIVCHAIERMKEVVRNYNVESTWFIEGYTPPVSEYLSNALATTTYYYLATTSYLGMKSATEQDFEWLSKNPKILEASVIICRVIDDTATYEVEKSRGQIATGIECCMRDYGISTKEAMAKFQNMAETAWKDINEGLLRPTPVSTEFLTPILNLARIVEVTYIHNLDGYTHPEKVLKPHIINLLVDSIKI",,,,,,not alkylated
"TEAS Y520F: TEAS protein in which Tyr520 is changed to Phe, SEQ ID NO:6 (protein) MASAAVANYEEEIVRPVADFSPSLWGDQFLSFSIDNQVAEKYAQEIEALKEQTRSMLLATGRKLADTLNLIDIIERLGISYHFEKEIDEILDQIYNQNSNCNDLCTSALQFRLLRQHGFNISPEIFSKFQDENGKFKESLASDVLGLLNLYEASHVRTHADDILEDALAFSTIHLESAAPHLKSPLREQVTHALEQCLHKGVPRVETRFFISSIYDKEQSKNNVLLRFAKLDFNLLQMLHKQELAQVSRWWKDLDFVTTLPYARDRVVECYFWALGVYFEPQYSQARVMLVKTISMISIVDDTFDAYGTVKELEAYTDAIQRWDINEIDRLPDYMKISYKAILDLYKDYEKELSSAGRSHIVCHAIERMKEVVRNYNVESTWFIEGYMPPVSEYLSNALATTTYYYLATTSYLGMKSATEQDFEWLSKNPKILEASVIICRVIDDTATYEVEKSRGQIATGIECCMRDYGISTKEAMAKFQNMAETAWKDINEGLLRPTPVSTEFLTPILNLARIVEVTFIHNLDGYTHPEKVLKPHIINLLVDSIKI",same GC retention time as authentic germacrene A and the same mass spectrum as authentic germacrene A,,,,,
